# From paper PMC3549664
# Tests used:
# [1] = survival after PUGNAc then Fas antibody; settings: glycan lost; control: FVB/n and hK18 WT mice
# [2] = Coomassie of high salt extract, hK18 blot; settings: glycan lost; control: hK18-WT mouse line
# [3] = immunofluorescence of liver and pancreas, basal; settings: glycan lost; control: hK18 WT mice
# [4] = gross appearance, histology, Oil red O, PAS, insulin stain; settings: glycan lost; control: hK18 WT mice
# [5] = anti-K18 pS53 blot; settings: glycan lost; control: K18 WT transfectants
Protein,other: mouse lethality after PUGNAc/Fas [1],expression_or_secretion [2],other: keratin filament organisation [3],other: tissue injury after STZ [4],other: K18 S34/S53 phosphorylation [5]
"keratin 18 (K18, hK18): K18 S30/31/49A (Gly−) (protein) parent chain: MSFTTRSTFSTNYRSLGSVQAPSYGARPVSSAASVYAGAGGSGSRISVSRSTSFRGGMGSGGLATGIAGGLAGMGGIQNEKETMQSLNDRLASYLDRVRSLETENRRLESKIREHLEKKGPQVRDWSHYFKIIEDLRAQIFANTVDNARIVLQIDNARLAADDFRVKYETELAMRQSVENDIHGLRKVIDDTNITRLQLETEIEALKEELLFMKKNHEEEVKGLQAQIASSGLTVEVDAPKSQDLAKIMADIRAQYDELARKNREELDKYWSQQIEESTTVVTTQSAEVGAAETTLTELRRTVQSLEIDLDSMRNLKASLENSLREVEARYALQMEQLNGILLHLESELAQTRAEGQRQAQEYEALLNIKVKLEAEIATYRRLLEDGEDFNLGDALDSSNSMQTIQKTTTRRIVDGKVVSETNDTKVLRH",increases,no change,no change,increases,
"keratin 18 (K18, hK18): K18 Gly− (protein) parent chain: MSFTTRSTFSTNYRSLGSVQAPSYGARPVSSAASVYAGAGGSGSRISVSRSTSFRGGMGSGGLATGIAGGLAGMGGIQNEKETMQSLNDRLASYLDRVRSLETENRRLESKIREHLEKKGPQVRDWSHYFKIIEDLRAQIFANTVDNARIVLQIDNARLAADDFRVKYETELAMRQSVENDIHGLRKVIDDTNITRLQLETEIEALKEELLFMKKNHEEEVKGLQAQIASSGLTVEVDAPKSQDLAKIMADIRAQYDELARKNREELDKYWSQQIEESTTVVTTQSAEVGAAETTLTELRRTVQSLEIDLDSMRNLKASLENSLREVEARYALQMEQLNGILLHLESELAQTRAEGQRQAQEYEALLNIKVKLEAEIATYRRLLEDGEDFNLGDALDSSNSMQTIQKTTTRRIVDGKVVSETNDTKVLRH",,,,,no change
